Source: the supplement of paper PMC9112550, “Optimization of the antimicrobial peptide Bac7 by deep mutational scanning” (BMC Biology, 2022)

Tested on: Escherichia coli TOP10
Test: shrunken log2 fold change of peptide-encoding DNA abundance (4.5 h post-induction vs induction); higher = less antimicrobial activity (less host growth inhibition)
Details: time post-induction: 4.5 h; library: site-saturation at positions 5, 18, 19, 20
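Also: peptides expressed intracellularly from a pBAD plasmid library in pooled LB shake-flask culture, induced with 0.3% L-arabinose, DNA abundance read by NGS, three biological replicates, DESeq2 with apeglm shrinkage.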

Row | Sequence | shrunken log2 fold change
1 | RRIRNRPPRLPRPRPRPIEIPRP | 0.0194
2 | RRIRKRPPRLPRPRPRPPYGPRP | 0.156
3 | RRIRTRPPRLPRPRPRPHSIPRP | -0.0668
4 | RRIRDRPPRLPRPRPRPEIDPRP | 0.0535
5 | RRIRDRPPRLPRPRPRPSMWPRP | -0.0184
6 | RRIRARPPRLPRPRPRPHHKPRP | -0.347
7 | RRIRKRPPRLPRPRPRPKARPRP | 0.0808
8 | RRIRNRPPRLPRPRPRPFGPPRP | -0.406
9 | RRIRPRPPRLPRPRPRPCLMPRP | -0.393
10 | RRIRARPPRLPRPRPRPVVMPRP | 0.282
11 | RRIRGRPPRLPRPRPRPKMDPRP | 0.738
12 | RRIRVRPPRLPRPRPRPQRDPRP | -0.171
13 | RRIRRRPPRLPRPRPRPWQFPRP | -0.0199
14 | RRIRCRPPRLPRPRPRPFRNPRP | -0.0491
15 | RRIRSRPPRLPRPRPRPAREPRP | 0.0982
16 | RRIRKRPPRLPRPRPRPKQEPRP | -0.104
17 | RRIRNRPPRLPRPRPRPWYFPRP | -0.222
18 | RRIRMRPPRLPRPRPRPFCCPRP | 0.534
19 | RRIRCRPPRLPRPRPRPHTRPRP | -0.372
20 | RRIRGRPPRLPRPRPRPYYGPRP | -0.289
21 | RRIRHRPPRLPRPRPRPFWMPRP | -0.0444
22 | RRIRGRPPRLPRPRPRPFVLPRP | -0.000308
23 | RRIRARPPRLPRPRPRPVPQPRP | 0.271
24 | RRIRDRPPRLPRPRPRPWDVPRP | -0.00145
25 | RRIRFRPPRLPRPRPRPRLLPRP | 0.342

Row | Sequence | shrunken log2 fold change
26 | RRIRPRPPRLPRPRPRPNGAPRP | 0.327
27 | RRIRERPPRLPRPRPRPETMPRP | 0.0664
28 | RRIRERPPRLPRPRPRPMYPPRP | -0.0412
29 | RRIRSRPPRLPRPRPRPWRRPRP | 0.0927
30 | RRIRERPPRLPRPRPRPRRNPRP | -0.0448
31 | RRIRNRPPRLPRPRPRPSQTPRP | -0.00249
32 | RRIRLRPPRLPRPRPRPHHGPRP | -0.0757
33 | RRIRRRPPRLPRPRPRPQLLPRP | 0.537
34 | RRIRWRPPRLPRPRPRPTAIPRP | 0.806
35 | RRIRCRPPRLPRPRPRPCRHPRP | -0.196
36 | RRIRFRPPRLPRPRPRPKSDPRP | 0.0639
37 | RRIRFRPPRLPRPRPRPQNSPRP | -0.568
38 | RRIRHRPPRLPRPRPRPCMDPRP | -0.0981
39 | RRIRTRPPRLPRPRPRPYGWPRP | -0.123
40 | RRIRLRPPRLPRPRPRPYIHPRP | -1.05
41 | RRIRARPPRLPRPRPRPHFLPRP | -0.127
42 | RRIRKRPPRLPRPRPRPEEGPRP | 0.0325
43 | RRIRPRPPRLPRPRPRPHEDPRP | -0.0757
44 | RRIRSRPPRLPRPRPRPHKHPRP | -0.411
45 | RRIRDRPPRLPRPRPRPWGPPRP | -0.0594
46 | RRIRIRPPRLPRPRPRPCVGPRP | -0.164
47 | RRIRERPPRLPRPRPRPYLWPRP | -0.431
48 | RRIRDRPPRLPRPRPRPMYVPRP | -0.243
49 | RRIRARPPRLPRPRPRPLDQPRP | 1.44
50 | RRIRIRPPRLPRPRPRPFEKPRP | -0.103

Row | Sequence | shrunken log2 fold change
51 | RRIRTRPPRLPRPRPRPVGCPRP | 0.304
52 | RRIRKRPPRLPRPRPRPGRAPRP | 0.786
53 | RRIRIRPPRLPRPRPRPEMGPRP | -0.105
54 | RRIRLRPPRLPRPRPRPFGWPRP | 0.0538
55 | RRIRPRPPRLPRPRPRPSDKPRP | -0.264
56 | RRIRHRPPRLPRPRPRPHHDPRP | -0.166
57 | RRIRCRPPRLPRPRPRPNDAPRP | -0.12
58 | RRIRHRPPRLPRPRPRPAKCPRP | -0.0799
59 | RRIRVRPPRLPRPRPRPHLGPRP | -0.132
60 | RRIRSRPPRLPRPRPRPKRIPRP | -0.275
61 | RRIRRRPPRLPRPRPRPFEHPRP | -0.0715
62 | RRIRGRPPRLPRPRPRPWWDPRP | -0.145
63 | RRIRFRPPRLPRPRPRPRETPRP | 0.0137
64 | RRIRHRPPRLPRPRPRPDFGPRP | -0.156
65 | RRIRPRPPRLPRPRPRPWHWPRP | -0.0102
66 | RRIRKRPPRLPRPRPRPRQMPRP | 0.0035
67 | RRIRWRPPRLPRPRPRPNDEPRP | 0.0507
68 | RRIRHRPPRLPRPRPRPFLFPRP | -0.408
69 | RRIRERPPRLPRPRPRPIDEPRP | 0.0844
70 | RRIRPRPPRLPRPRPRPDIYPRP | -0.0306
71 | RRIRPRPPRLPRPRPRPNWDPRP | 0.0377
72 | RRIRPRPPRLPRPRPRPASFPRP | 0.0681
73 | RRIRSRPPRLPRPRPRPDCWPRP | 0.362
74 | RRIRCRPPRLPRPRPRPMCTPRP | -0.098
75 | RRIRKRPPRLPRPRPRPWRVPRP | 0.122

Row | Sequence | shrunken log2 fold change
76 | RRIRCRPPRLPRPRPRPDHKPRP | -1.04
77 | RRIRQRPPRLPRPRPRPAHAPRP | 0.0691
78 | RRIRRRPPRLPRPRPRPLHPPRP | 0.437
79 | RRIRHRPPRLPRPRPRPEQRPRP | 0.229
80 | RRIRERPPRLPRPRPRPNNMPRP | -0.713
81 | RRIRSRPPRLPRPRPRPPCKPRP | -0.163
82 | RRIRYRPPRLPRPRPRPTWDPRP | 0.114
83 | RRIRTRPPRLPRPRPRPWNQPRP | -0.543
84 | RRIRGRPPRLPRPRPRPECVPRP | 1.72
85 | RRIRTRPPRLPRPRPRPCISPRP | -0.503
86 | RRIRCRPPRLPRPRPRPLVCPRP | -0.0544
87 | RRIRERPPRLPRPRPRPNLNPRP | -0.58
88 | RRIRMRPPRLPRPRPRPMGEPRP | 0.792
89 | RRIRSRPPRLPRPRPRPASLPRP | -0.0507
90 | RRIRVRPPRLPRPRPRPIEDPRP | -0.0208
91 | RRIRARPPRLPRPRPRPIFVPRP | 0.233
92 | RRIRPRPPRLPRPRPRPKMPPRP | -0.0926
93 | RRIRDRPPRLPRPRPRPSWTPRP | -0.274
94 | RRIRPRPPRLPRPRPRPFKCPRP | -0.214
95 | RRIRRRPPRLPRPRPRPRKCPRP | 0.22
96 | RRIRERPPRLPRPRPRPWQVPRP | 0.0371
97 | RRIRIRPPRLPRPRPRPWWGPRP | 0.0378
98 | RRIRARPPRLPRPRPRPHMAPRP | -0.183
99 | RRIRPRPPRLPRPRPRPWGVPRP | -0.128
100 | RRIRTRPPRLPRPRPRPTQEPRP | -0.0182

Row | Sequence | shrunken log2 fold change
101 | RRIRNRPPRLPRPRPRPHGIPRP | -0.154
102 | RRIRYRPPRLPRPRPRPMPDPRP | -0.204
103 | RRIRVRPPRLPRPRPRPDIWPRP | 0.0543
104 | RRIRHRPPRLPRPRPRPWCAPRP | -0.145
105 | RRIRPRPPRLPRPRPRPNGYPRP | -0.224
106 | RRIRGRPPRLPRPRPRPVICPRP | 0.252
107 | RRIRPRPPRLPRPRPRPICQPRP | -0.0543
108 | RRIRKRPPRLPRPRPRPGIKPRP | 0.34
109 | RRIRARPPRLPRPRPRPYHTPRP | -0.407
110 | RRIRMRPPRLPRPRPRPDDYPRP | 0.766
111 | RRIRQRPPRLPRPRPRPAELPRP | -0.00135
112 | RRIRWRPPRLPRPRPRPIWQPRP | -0.0567
113 | RRIRPRPPRLPRPRPRPLNKPRP | -0.55
114 | RRIRTRPPRLPRPRPRPKDWPRP | 0.358
115 | RRIRLRPPRLPRPRPRPLGSPRP | -0.00618
116 | RRIRRRPPRLPRPRPRPFGFPRP | 0.197
117 | RRIRVRPPRLPRPRPRPISPPRP | 0.129
118 | RRIRQRPPRLPRPRPRPIKTPRP | -0.0201
119 | RRIRERPPRLPRPRPRPDHKPRP | -0.501
120 | RRIRCRPPRLPRPRPRPDICPRP | -0.22
121 | RRIRPRPPRLPRPRPRPSWIPRP | -0.179
122 | RRIRARPPRLPRPRPRPLTCPRP | -0.248
123 | RRIRDRPPRLPRPRPRPFPVPRP | -0.0955
124 | RRIRMRPPRLPRPRPRPCGDPRP | 0.34
125 | RRIRYRPPRLPRPRPRPFVQPRP | -0.0236
